Data as given in patent US9045765B2, “EPSP synthase genes conferring herbicide resistance” (priority 2006, dated 2015).

How the values were obtained:
[1] = tested on: GRG31 EPSP synthase enzymatic activity; experiment: Temperature optimum of GRG31 enzymatic activity (phosphate release, AMPLEX Red fluorescence); assay type: biochemical, Sphingobacterium multivorum/faecium
Description: Following IPTG induction, the GRG31 protein was purified to homogeneity by standard methods. […] Following incubation, the enzyme was heated to 90° C. for 1 minute to denature the enzyme, and then cooled to 4° C. The phosphate generated by each reaction was then added to a second assay containing inosine, purine nucleoside phosphorylase, xanthine oxidase, horseradish peroxidase, and the fluorescent substrate AMPLEX® Red (U.S. Patent Application No. 60/741,166, filed Dec. 1, 2005). Following incubation for 15 minutes at room temperature, fluorescent product was quantified using a Gemini XPS spectrofluorometer (Molecular Devices Corporation, Sunnyvale, Calif.). EPSP synthase product formation was measured, and is expressed in Table 5 as a percentage of maximal activity.

[2] = tested on: GRG31 EPSP synthase enzymatic activity; experiment: Thermal stability of GRG31 enzymatic activity at 37° C. (AMPLEX Red assay, 2 mM glyphosate); assay type: biochemical, Sphingobacterium multivorum/faecium
Description: Following IPTG induction, the GRG31 protein was purified to homogeneity by standard methods. To measure enzymatic activity, the purified GRG31 enzyme was diluted to an appropriate assay concentration in buffer containing HEPES (50 mM, pH 7) and 50 mM KCl, and then incubated at 37° C. for 0, 2, 6 or 22 hours. A control sample was incubated alongside at 4° C. At each timepoint, an aliquot was removed from each sample and enzymatic assays were carried out in a final volume of 50 μl containing 0.5 mM shikimate-3-phosphate, 200 uM phosphoenolpyruvate (PEP), 1 U/ml xanthine oxidase, 2 U/ml nucleoside phosphorylase, 2.25 mM inosine, 1 U/ml horseradish peroxidase, 2 mM glyphosate, 50 mM HEPES/KOH pH 7.0, 100 mM KCl, and AMPLEX® Red (Invitrogen) according to the manufacturer's instructions. Assays were started by adding shikimate-3-phosphate. EPSP synthase activity was measured using a Spectramax Gemini XPS fluorescence spectrometer (Molecular Dynamics, excitation: 555 nm; emission: 590 nm). EPSP synthase thermal stability was calculated as the percentage of enzymatic activity at each timepoint at 37° C. relative to enzymatic activity in the control sample incubated alongside at 4° C. (Table 6).

B1: GRG31: glyphosate-resistant EPSP synthase, predicted translation product of grg31, from strain ATX21318 (protein)
chain: MNQQVITLTHPSKKIQGTVQLTGSKSESNRALIIQSLSKGQVEIANLSEAADTVTLNRVLQIASDPKPGFNTIDIGPAGTAMRFLTAYLNLVKGNFILTGTERMQQRPIGILVDAMKEIGADIHYDKKVGYPPLKIEGGLFQEKDRVKIKGNISSQYISALLLIAPALKKGLTLEIEGELTSRPYVSMTLDMLKSVGIQHEWKNNAIKIAPQAFEKQTIYVEPDWSAASYWYAIAALADANASIVLPGLRKNSLQGDIAIISIMEHFGVQSSFESDGLHLNKKVIGSDVSLFNFKECPDLAQTVVVVAAALKRDVSFTGLETLKIKETDRIAALQKEIAKFGAELIEDGDTYHLKTAQVYQPEEVTFDTYEDHRMAMAFAPLALVFDQIKIAEPQVVEKSYPDFWNHLQAQAFVIE
modifications: Sphingobacterium multivorum/faecium
notes: glyphosate-resistant EPSP synthase, predicted translation product of grg31, from strain ATX21318
Percentage of Maximal Activity ([1]; 10 ° C., 15 minutes incubation): 42%
Percentage of Maximal Activity ([1]; 20 ° C., 15 minutes incubation): 62%
Percentage of Maximal Activity ([1]; 30 ° C., 15 minutes incubation): 69%
Percentage of Maximal Activity ([1]; 40 ° C., 15 minutes incubation): 80%
Percentage of Maximal Activity ([1]; 50 ° C., 15 minutes incubation): 100%
Percentage of Maximal Activity ([1]; 60 ° C., 15 minutes incubation): 96%
Percentage of Maximal Activity ([1]; 70 ° C.): 67%
Percentage of Maximal Activity ([1]; 80 ° C.): 36%
Percentage of control (enzymatic activity at 37° C. relative to control at 4° C.) ([2]; 0 hours at 37° C.): 100%
Percentage of control (enzymatic activity at 37° C. relative to control at 4° C.) ([2]; 2 hours at 37° C.): 86%
Percentage of control (enzymatic activity at 37° C. relative to control at 4° C.) ([2]; 6 hours at 37° C.): 68%
Percentage of control (enzymatic activity at 37° C. relative to control at 4° C.) ([2]; 22 hours at 37° C.): 29%
